The text below walks through data of paper PMC10187921, “A fully human neutralizing monoclonal antibody targeting a highly conserved epitope of the human cytomegalovirus glycoprotein B” (PLOS ONE, 2023).

Test [1] has as its target glycoprotein B of 42 Japanese clinical isolates (39 tested in MRC-5, 24 in ARPE-19 cells) (human cytomegalovirus).
Test [2] deals with glycoprotein B of eight Japanese clinical isolates (2009-889, I88-55, I144-44, H12-42, H12-43, H1-10, H1-15, MDU-1) (human cytomegalovirus).
The target in test [3] is T1, Human cytomegalovirus glycoprotein B (strain AD169) on infectious virions (Human cytomegalovirus, strain AD169, UniProt P06473). Briefly: cell-based or functional assay.
Test [4] deals with T2, Recombinant AD-1 protein from HCMV gB (strain AD169, amino acids 541-658), fused with glutathione … (Human cytomegalovirus, strain AD169, UniProt P06473).
T2 construct: antigenic domain 1 (AD-1) of human cytomegalovirus glycoprotein B, strain AD169, amino acids 541-658, UniProtKB P06473; The printed size of 40.7 kDa fits the fusion with GST still on it; no cleavage is told; Vector pGEX4T; also called recombinant antigenic domain 1; source: E. coli BL21 (DE3), solubilized with 0.5% sarkosyl, purified (SDS-PAGE, electroelution, dialysis against PBS)
Kind of test: SPR; Biacore T200; EV2038 (0.33 μg/mL) captured by anti-IgG (Fc) antibody on a CM5 chip; recombinant AD-1 injected as analyte; 1:1 binding model. Conditions: both partners purified.

Test [5] deals with T1, Human cytomegalovirus glycoprotein B …. Kind of test: SPR; Biacore T200; infectious virions (strain AD169, 1.6 × 10^8 plaque-forming units/mL) trapped by captured MSL-109 (anti-gH/gL); EV2038 injected as analyte; 1:1 binding model. Conditions: one partner purified.

T1 sequence (P06473 32-906): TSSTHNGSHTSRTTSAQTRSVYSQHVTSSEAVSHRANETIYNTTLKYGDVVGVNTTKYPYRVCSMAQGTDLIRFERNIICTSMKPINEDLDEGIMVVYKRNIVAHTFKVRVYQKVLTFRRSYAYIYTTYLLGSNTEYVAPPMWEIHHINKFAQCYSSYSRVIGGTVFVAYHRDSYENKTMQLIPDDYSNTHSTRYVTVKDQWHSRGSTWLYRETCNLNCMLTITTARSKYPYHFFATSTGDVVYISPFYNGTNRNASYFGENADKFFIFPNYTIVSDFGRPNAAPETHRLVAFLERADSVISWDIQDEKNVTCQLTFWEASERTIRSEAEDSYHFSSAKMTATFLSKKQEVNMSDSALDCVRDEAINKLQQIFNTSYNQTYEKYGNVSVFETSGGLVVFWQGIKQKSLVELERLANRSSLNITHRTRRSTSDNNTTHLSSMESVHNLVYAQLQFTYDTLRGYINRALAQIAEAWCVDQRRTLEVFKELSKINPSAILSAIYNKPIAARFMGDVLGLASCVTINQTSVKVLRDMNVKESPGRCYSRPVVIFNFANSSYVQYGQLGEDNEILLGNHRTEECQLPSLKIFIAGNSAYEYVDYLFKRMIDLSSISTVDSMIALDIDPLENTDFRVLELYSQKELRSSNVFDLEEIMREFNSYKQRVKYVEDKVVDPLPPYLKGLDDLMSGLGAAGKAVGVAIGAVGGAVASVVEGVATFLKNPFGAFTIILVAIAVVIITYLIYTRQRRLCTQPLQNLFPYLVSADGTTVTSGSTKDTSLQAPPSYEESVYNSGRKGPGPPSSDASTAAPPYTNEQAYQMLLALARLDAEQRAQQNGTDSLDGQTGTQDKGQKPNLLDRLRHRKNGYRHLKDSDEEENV
T2 sequence (P06473 541-658): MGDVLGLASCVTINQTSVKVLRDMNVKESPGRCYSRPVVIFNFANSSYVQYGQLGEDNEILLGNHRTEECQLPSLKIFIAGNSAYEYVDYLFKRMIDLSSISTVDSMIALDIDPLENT

B1: EV2038 (IgG1 lambda), fully human neutralizing monoclonal antibody (antibody, V domains shown)
VH: QVQLQQWGAGLLKPSETLSLTCAVYGGSFSGYYWGWIRQPPGKGLEWIGEINHSGSANSNPSLKSRVTMSVDTSKNQFSLKVSSVTAADTAVYFCARVTRDLEWIPGDYYMDVWGKGTTVTVSS
VL: QSVLTQPPSASGTPGQRVSISCSGSLSNIGTNYVYWYQQLPGTAPKLLIFKNNQRPSGVPDRFSGSKSGTSASLAISGLRSEDEADYYCAAWDDSLNGYVFGTGTKVTVL
notes: heavy chain framework 1: only the Kabat CDRs are printed; heavy chain CDR1 (Kabat); heavy chain CDR2 (Kabat); heavy chain CDR3 (Kabat); constant region of human IgG1 heavy chain; light chain framework 1: only the Kabat CDRs are printed; light chain CDR1 (Kabat); light chain CDR2 (Kabat); light chain CDR3 (Kabat); constant region of a human lambda light chain; IgG1 lambda; the frameworks are not; …
In test [1], B1 had an IC50 of neutralisation of HCMV infection, plaque reduction assay, 24 clinical isolates in ARPE-19 cells of 0.013 to 0.105 µg/mL; an IC50 of neutralisation of HCMV infection, plaque reduction assay, 39 clinical isolates in MRC-5 cells of 0.013 to 0.103 µg/mL; an IC90 of neutralisation of HCMV infection, plaque reduction assay, 24 clinical isolates in ARPE-19 cells of 0.208 to 1.03 µg/mL; an IC90 of neutralisation of HCMV infection, plaque reduction assay, 39 clinical isolates in MRC-5 cells of 0.215 to 0.901 µg/mL. Also, in test [2], the IC50 of inhibition of viral cell-to-cell spread, focus expansion assay, eight clinical isolates in ARPE-19 cells was in the range of 1 to 3.1 µg/mL and the IC90 of inhibition of viral cell-to-cell spread, focus expansion assay, eight clinical isolates in ARPE-19 cells fell in the range of 13 to 19 µg/mL. Further, in test [3], the “IC50 of neutralisation of HCMV infection (strain AD169) after two passages of virus grown with mAbs, preliminary study” value was in the range of 0.08 to 0.18 µg/mL and the “IC50 of neutralisation of HCMV infection (strain AD169) in MRC-5 cells, without anti-CMV agents” value was approximately 0.1 µg/mL. In test [4], the Kd came to 5.73 nM and the koff was determined as 0.000279 s⁻¹. Further, in test [5], the Kd was 0.224 nM and the koff worked out at 0.00113 s⁻¹.
